Laboratory results published in patent publication US20110257373A1 (published 2011).
Residue numbers refer to the chain shown, from its start.

T1: human DC-SIGN (human, UniProt Q9NNX6 62-404, limits assumed)
T1 construct: Coated on ELISA wells; also called CD209; DC-SIGN protein
T1 sequence: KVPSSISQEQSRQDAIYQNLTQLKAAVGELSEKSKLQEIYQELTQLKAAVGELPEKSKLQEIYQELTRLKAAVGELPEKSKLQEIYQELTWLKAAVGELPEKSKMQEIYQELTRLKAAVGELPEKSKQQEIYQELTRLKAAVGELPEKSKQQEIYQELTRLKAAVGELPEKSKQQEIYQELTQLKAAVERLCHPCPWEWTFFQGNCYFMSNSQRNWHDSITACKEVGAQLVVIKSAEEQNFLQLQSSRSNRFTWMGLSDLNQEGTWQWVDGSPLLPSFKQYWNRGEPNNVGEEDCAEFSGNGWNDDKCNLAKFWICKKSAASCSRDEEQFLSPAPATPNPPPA

T2: DC-SIGNR (Homo sapiens (Human), UniProt Q9H2X3 78-399, limits assumed)
T2 construct: Bought (R&D Cat nr 162-D2)
T2 sequence: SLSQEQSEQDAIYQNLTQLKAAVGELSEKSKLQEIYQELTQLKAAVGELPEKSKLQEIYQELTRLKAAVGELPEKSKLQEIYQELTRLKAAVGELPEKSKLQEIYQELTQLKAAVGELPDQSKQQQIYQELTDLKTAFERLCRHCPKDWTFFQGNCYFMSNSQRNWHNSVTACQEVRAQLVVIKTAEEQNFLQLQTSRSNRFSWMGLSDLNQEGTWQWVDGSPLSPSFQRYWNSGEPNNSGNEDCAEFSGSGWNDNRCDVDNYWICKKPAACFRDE

B1: LIP1-33 (other)
VH: EVQLLESGGGLVQPGGSLRLSCAASGFTFPSGTMGWVRQAPGKGLEWVSYIDPSGFMTYYADSVKGRFTISRDNSKNTLYLQMNSLRAEDTAVYYCAKSIVPRSGTFDYWGQGTLVTVSS
notes: Human VH domain antibody (dAb); also called LIP1-33 phage
B2: 1-12 (other)
VK dAb: DIQMTQSPSSLSASVGDRVTITCRASRPIGTNLYWYQQKPGKAPKLLIVGGSFLQSGVPSRFSGSGSGTDFTLTISSLQPEDFATYYCGQRARYPGTFGQGTKVEIKR
notes: human VK domain antibody, tested as phage particles; also called LIP1-12; LIP1-12 phage
B3: 1-13 (other)
VK dAb: DIQMTQSPSSLSASVGDRVTITCRASQGIWQELKWYQQKPGKAPRLLIYRGSSLQSGVPSRFSGSGSGTDFTLTISSLQPEDFATYYCQQSFYPPYTFGQGTKVEIKR
notes: human VK domain antibody, tested as phage particles; also called LIP1-13; LIP1-13 phage
B4: 1-23 (other)
VK dAb: B3 VK dAb with G28D, Q31R, K34R, R45K, G51A, S53N, F62L, S91T
notes: human VK domain antibody, tested as phage particles; also called LIP1-23; LIP1-23 phage
B5: 1-15 (other)
VK dAb: DIQMTQSPSSLSASVGDRVTITCRASRAIGTYLAWYQQKPGKAPKLLILWGSVLQSGVPSRFSGSGSGTDFTLTISSLQPEDFATYYCAQLAQRPSTFGQGTKVEIKR
notes: human VK domain antibody, tested as phage particles; also called LIP1-15; LIP1-15 phage
B6: 1-26 (other)
VH dAb: EVQLLESGGGLVQPGGSLRLSCAASGFTFSHYTMSWVRQAPGKGLEWVSSISSTGFKTYYADSVKGRFTISRDNSKNTLYLQMNSLRAEDTAVYYCAKWNPHRSTYFDYWGQGTLVTVSS
notes: human VH domain antibody, tested as phage particles; also called LIP1-26; LIP1-26 phage
B7: LIP1-29 (other)
VH: EVQLLESGGGLVQPGGSLRLSCAASGFTFDRRAMGWVRQAPGKGLEWVSSIESDGTRTYYADSVKGRFTISRDNSKNTLYLQMNSLRAEDTAVYYCAKHPGSSYVFDYWGQGTLVTVSS
notes: all other claims print 34
B8: DC-SIGN peptide (9xHIS tag, linker and the C-terminal end of DC-SIGN) (peptide)
peptide: HHHHHHHHHSGSGKKSAASCSRDEEQFLSPAPATPNPPPA
notes: also called HIS tagged DC-SIGN peptide
B9: LIP1-25 (other)
VH: EVQLLESGGGLVQPGGSLRLSCAASGFTFPDADMVWVRQAPGKGLEWVSSISDHGFNTYYADSVKGRFTISRDNSKNTLYLQMNSLRAEDTAVYYCAKSPLATFDYWGQGTLVTVSS
B10: LIP1-27 (other)
VH: EVQLLESGGGLVQPGGSLRLSCAASGFTFEQTDMHWARQAPGKGPEWVSSISPLGAFTYYADSVKGRFTISRDNSKNTLYLQMNSLRAEDTAVYYCAKSPLVRNNGQFDYWGQGTLVTVSS
B11: LIP1-28 (other)
VH: EVQLLESGGGLVQPGGSLRLSCAASGFTFVATPMHWVRQAPGKGLEWVSAISGSGGSTYYADSVKGRFTISRDNSKNTLYLQMNSLRAEDTAVYYCAKGWDPSLERFDYWGQGTLVTVSS
B12: LIP1-30 (other)
VH: EVQLLESGGGLVQPGGSLRLSCAASGFTFSGYSMAWVRQAPGKGLEWVSQIGPLGVKTYYADSVKGRFTISRDNSKNTLYLQMNSLRAEDTAVYYCAKLTSDAHDFDYWGQGTLVTVSS
notes: all other claims print 29

Assays:
[1] = target: T1, human DC-SIGN; assay: phage ELISA: DC-SIGN coated on the wells, serial dilutions of LIP1-33 phage, detection with anti-M13 antibody-HRP and TMB, OD450
Description: (§1) Phage particles from LIP1-33 were prepared, and serial dilutions of phage particles were tested in ELISA. The ELISA wells were coated overnight at 4° C. with DC SIGNR, neutravidin, DC SIGN or DC SIGN peptide (1-10 μg/ml in PBS or 0.1 M NaHCO₃ buffer, pH 9.6). After blocking the wells with PBS containing 2% skimmed-milk powder (PBSM), phage was incubated in PBSM for 1 hr. After washing with PBS, bound phage were detected using a conjugate of horseradish peroxidase with an anti-M13 monoclonal antibody (Amersham) using 3,3′,5,5′-tetramethylbenzidine as substrate. HEL4 and VKdummy are non-binding negative controls.
(§2) For phage ELISA, the ELISA wells were coated overnight at 4° C. with DC SIGN or DC SIGNR (R&D Cat nr 162-D2) at (1-10 μg/ml in PBS or 0.1 M NaHCO₃ buffer, pH 9.6). After blocking the wells with PBS containing 2% skimmed-milk powder (PBSM), phage was incubated in PBSM for 1 hr. After washing with PBS, bound phage were detected using a conjugate of horseradish peroxidase with an anti-M13 monoclonal antibody (Amersham) using 3,3′,5,5′-tetramethylbenzidine as substrate.

[2] = target: T2, DC-SIGNR; assay: phage ELISA: DC-SIGNR coated on the wells, serial dilutions of LIP1-33 phage, detection with anti-M13 antibody-HRP and TMB, OD450
Description: as §1, §2

[3] = target: B8; assay: phage ELISA: DC-SIGN peptide coated on the wells, serial dilutions of LIP1-33 phage, detection with anti-M13 antibody-HRP and TMB, OD450
Description: as §1

[4] = target: T1, human DC-SIGN; assay: phage ELISA: DC-SIGN coated on the wells, serial dilutions of phage particles, detection with anti-M13 antibody-HRP and TMB, OD 450
Description: as §1, with “individual LIP1 clones” for “LIP1-33”, “DC” for “DC SIGNR, neutravidin, DC”, “SIGN” for “SIGN or DC SIGN peptide”, “substrate.” for “substrate. HEL4 and VKdummy are non-binding negative controls.”
as §2

[5] = target: B1; assay: competition phage ELISA; HIS tagged peptide in solution as competitor (data not shown)
[6] = target: T1, human DC-SIGN; assay: phage ELISA

B1
binding result [1]: binds
binding result [2]: no binding
binding result [3]: binds

B2
binding result [4]: binds

B3
binding result [4]: binds

B4
binding result [4]: binds

B5
binding result [4]: binds

B6
binding result [4]: binds

B7
binding result [4]: binds

B8
binding result [5]: binds

B9
binding result [6]: binds

B10
binding result [6]: binds

B11
binding result [6]: binds

B12
binding result [6]: binds
